The format of data set [1] is physicochemical. On the procedure:
Measurement of chemical stability of DHA5. The dehydro residues of nisin and subtilin have vinyl protons that give well-separated resonances in the proton NMR spectrum, Liu and Hansen, Appl. Environ. Microbiol., 56, p. 251 (1990). The areas of the vinyl proton peaks in the NMR spectrum were measured, and chemical modification of DHA5 over time was taken as the decrease in peak area of the DHA5 vinyl protons in subtilin and in E4I-subtilin as compared to zero time. Proton NMR spectra were obtained using a Bruker AMX-500 NMR spectrometer. The spectra were obtained at a constant temperature of 295K, using selective solvent suppression.
Chemical and biological stability of natural subtilin. The natural producer of subtilin is B. subtilis ATCC 6633. […] These dissolved samples were incubated at room temperature, and from time to time, the NMR spectrum of the one sample and the biological activity of the other sample against Bacillus cereus spores were determined. […]
E4I-subtilin has enhanced chemical and biological stability. The central design strategy in the construction of a stable mutant of subtilin was based on the idea that the chemical and biological stabilities of subtilin are determined by the chemical reactivity of DHA5; and that DHA5 in natural subtilin is unstable because the Glu4 carboxyl participates in its chemical modification (FIG. 7). […]

Another data set relates to Bacillus cereus T spores. The experiment in a line: Spore outgrowth liquid assay (amount required to inhibit spore outgrowth during 3 hour assay). The class given is cell-based. On the procedure:
(§1) Measurement of biological stability of subtilin. Biological activity against Bacillus cereus spores was measured by a liquid assay in which various concentrations of subtilin were added to a suspension of Bacillus cereus T spores in 15 ml polypropylene tubes, and inhibitory effects were evaluated by phase-contrast microscopy as described previously (Morris et al, J. Biol. Chem., 259, 13590-13594 (1984) and Appl. Environ. Microbiol., 42, 958-962 (1981)). The amount of subtilin required to inhibit spore outgrowth during the 3 hour assay period was used as a measure of antimicrobial activity. Relative amounts of subtilin were estimated from the area of the subtilin peak (measured at 254 nm) that eluted from the C-18 analytical HPLC column during purification. The amounts were converted to molar quantities of subtilin by comparing the peak area of subtilin with that of a known molar quantity of a nisin standard (21). For this purpose, the extinction coefficients of nisin and subtilin at 254 nm were assumed to be the same, in that absorbance at this wavelength is mainly due to the same three dehydro residues present in both peptides. The biological activity against Bacillus cereus spores of the E4I-subtilinmutant was determined in the same way as for natural subtilin.
E4I-subtilin has enhanced specific activity. […]

The subject of a further data set is Bacillus cereus spores. The experiment in a line: Biological stability: activity against Bacillus cereus spores over time of incubation. In kind it is cell-based. The settings on record: 50 mM NaPi pH 6.8, room temperature, compared with DHA5 disappearance. On the procedure:
as §1
Chemical and biological stability of natural subtilin. The natural producer of subtilin is B. subtilis ATCC 6633. […]

For data set [2] the following is noted: reported; cited from earlier work.

Turning to `C=C(NC(=O)[C@@H](NC(=O)[C@H](CCCCN)NC(=O)[C@@H]1CSC(C)[C@H]2NC(=O)[C@H](CC(C)C)NC(=O)[C@H](NC(=O)[C@H](CCC(N)=O)NC(=O)[C@H](CC(C)C)NC(=O)[C@H](Cc3ccccc3)NC(=O)[C@@H]3CSC(C)[C@@H](NC(=O)[C@@H](NC(=O)[C@@H]4CSC(C)[C@@H](NC(=O)[C@@H]5CSC[C@@H](NC(=O)[C@H](CCCCN)NC(=O)[C@@H](N)Cc6c[nH]c7ccccc67)C(=O)N[C@@H]([C@@H](C)CC)C(=O)NC(=C)C(=O)N[C@@H](CC(C)C)C(=O)N5)C(=O)N5CCC[C@H]5C(=O)NCC(=O)N4)C(C)C)C(=O)NCC(=O)N[C@@H](C)C(=O)N[C@@H](CC(C)C)C(=O)N[C@@H](CCC(N)=O)C(=O)NC(=CC)C(=O)N3)C(C)SC[C@H](NC2=O)C(=O)N[C@@H](CC(N)=O)C(=O)N1)[C@@H](C)CC)C(=O)N[C@@H](CCCCN)C(=O)O` (stereo partly drawn) [E4I-subtilin], in data set [1], the “increase in chemical and biological stability relative to natural subtilin” value was determined as 57 fold.
As for `C=C1NC(=O)CC[C@@H](C(=O)O)NC(=O)[C@H](NC(=O)[C@H](CCCCN)NC(=O)[C@@H](N)Cc2c[nH]c3ccccc23)CSC[C@@H](C(=O)N[C@@H]2C(=O)N3CCC[C@H]3C(=O)NCC(=O)N[C@H](C(=O)N[C@H](C(=O)N[C@@H]3C(=O)NCC(=O)N[C@@H](C)C(=O)N[C@@H](CC(C)C)C(=O)N[C@@H](CCC(N)=O)C(=O)N/C(=C/C)C(=O)N[C@H](C(=O)N[C@@H](Cc4ccccc4)C(=O)N[C@@H](CC(C)C)C(=O)N[C@@H](CCC(N)=O)C(=O)N[C@@H]4C(=O)N[C@@H](CC(C)C)C(=O)N[C@H]5C(=O)N[C@@H](CSC4C)C(=O)NC(=O)[C@H](CC(N)=O)N[C@H](C(=O)N[C@@H](CCCCN)C(=O)N[C@H](C(=O)NC(=C)C(=O)N[C@@H](CCCCN)C(=O)O)[C@@H](C)CC)CSC5C)CSC3C)C(C)C)CSC2C)N[C@@H](CC(C)C)C(=O)NC1=O` (stereo partly drawn) [subtilin], the “t1/2 of chemical modification (disappearance) of DHA5, first-order” value in data set [1] (aqueous solution (D2O) pH 6.8, room temperature, NMR at 295K) was 19 h. In the data set on Bacillus cereus T spores, the “concentration showing inhibition of spore outgrowth” value is “about 1 μg per ml” and the “concentration showing inhibition of spore outgrowth (molar)” value is roughly 280 nM. Besides, the “loss of biological activity against Bacillus cereus spores during incubation” value with Bacillus cereus spores is on record as “dropped at approximately this same rate”. Also, the light sensitivity entry in data set [2] was “light-sensitive”.

(Values after patent US5885811A, “Leader sequence inducing a post-translational modification of polypeptides in bacteria gene therefor and subtilin variant of enhanced stability and activity” (University of Maryland, priority 1995, dated 1999).)
